Values of other authors in PMC7490560.
Where “and” joins values, the source holds several entries; their conditions need not be identical. Identical values can stand only once.

Target: KEAP1 (Homo sapiens) (UniProt Q14145)
Sequence (Q14145 whole entry): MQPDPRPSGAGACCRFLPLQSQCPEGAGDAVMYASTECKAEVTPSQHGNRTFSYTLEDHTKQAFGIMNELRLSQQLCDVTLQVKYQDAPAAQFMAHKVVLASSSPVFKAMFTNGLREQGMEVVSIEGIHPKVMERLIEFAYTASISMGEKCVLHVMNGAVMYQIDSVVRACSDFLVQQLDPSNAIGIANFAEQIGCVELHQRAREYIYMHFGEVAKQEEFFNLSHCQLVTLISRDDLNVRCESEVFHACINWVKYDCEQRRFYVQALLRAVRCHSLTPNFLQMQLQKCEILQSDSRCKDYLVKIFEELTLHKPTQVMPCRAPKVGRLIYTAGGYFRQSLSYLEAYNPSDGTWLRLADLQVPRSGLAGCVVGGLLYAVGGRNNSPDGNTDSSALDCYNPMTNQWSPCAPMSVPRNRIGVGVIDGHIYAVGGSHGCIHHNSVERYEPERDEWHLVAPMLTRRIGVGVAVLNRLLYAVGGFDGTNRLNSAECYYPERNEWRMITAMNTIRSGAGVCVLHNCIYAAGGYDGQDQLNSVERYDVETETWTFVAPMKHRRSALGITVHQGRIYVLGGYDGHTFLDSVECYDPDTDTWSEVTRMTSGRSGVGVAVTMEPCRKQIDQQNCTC

Chain of NRF2 (Q16236 whole entry): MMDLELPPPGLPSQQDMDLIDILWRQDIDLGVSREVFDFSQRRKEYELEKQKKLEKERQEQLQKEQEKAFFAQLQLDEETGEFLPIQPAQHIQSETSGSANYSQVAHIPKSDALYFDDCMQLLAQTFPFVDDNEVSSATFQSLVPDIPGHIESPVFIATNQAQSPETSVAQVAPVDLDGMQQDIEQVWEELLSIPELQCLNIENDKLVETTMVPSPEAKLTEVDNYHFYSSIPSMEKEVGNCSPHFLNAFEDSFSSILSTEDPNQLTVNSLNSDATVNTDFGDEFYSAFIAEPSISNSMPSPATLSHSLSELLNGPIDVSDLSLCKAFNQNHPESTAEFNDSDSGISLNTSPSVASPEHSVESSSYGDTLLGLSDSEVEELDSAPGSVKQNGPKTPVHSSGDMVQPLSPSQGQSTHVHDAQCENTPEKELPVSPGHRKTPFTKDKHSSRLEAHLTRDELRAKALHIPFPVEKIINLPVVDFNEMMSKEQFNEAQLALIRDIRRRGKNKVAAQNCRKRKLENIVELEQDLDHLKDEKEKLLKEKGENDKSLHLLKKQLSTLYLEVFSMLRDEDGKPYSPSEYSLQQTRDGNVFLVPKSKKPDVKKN

Kd: 0.58 µM and 0.167 µM
Substance: NRF2 (from UniProt Q16236)
